In US20010041790A1:

Target: 35S-labeled hamster PrPsen, glycophosphoinositol-negative form (35S-HaPrPsen) (Syrian golden hamster) (UniProt P04273)
Assay: cell-based or functional assay

How did the IC50 of the conversion reaction turn out when HaP109-141(del113-116) (peptide) was run?
Its IC50 of the conversion reaction is 70 µM.
